Results published in article PMC9367181 (Chemico-Biological Interactions, 2022).
Residue numbers refer to the chain shown, from its start. Names and notes keep the numbering of the source.

Columns and labels:
human carboxylesterase 1 = target: T1, human carboxylesterase 1 (Homo sapiens, UniProt P23141); experiment: inhibition of remdesivir hydrolysis in CES1-expressing cell S9 fraction, HPLC; assay type: biochemical
T1 sequence (P23141 18-567): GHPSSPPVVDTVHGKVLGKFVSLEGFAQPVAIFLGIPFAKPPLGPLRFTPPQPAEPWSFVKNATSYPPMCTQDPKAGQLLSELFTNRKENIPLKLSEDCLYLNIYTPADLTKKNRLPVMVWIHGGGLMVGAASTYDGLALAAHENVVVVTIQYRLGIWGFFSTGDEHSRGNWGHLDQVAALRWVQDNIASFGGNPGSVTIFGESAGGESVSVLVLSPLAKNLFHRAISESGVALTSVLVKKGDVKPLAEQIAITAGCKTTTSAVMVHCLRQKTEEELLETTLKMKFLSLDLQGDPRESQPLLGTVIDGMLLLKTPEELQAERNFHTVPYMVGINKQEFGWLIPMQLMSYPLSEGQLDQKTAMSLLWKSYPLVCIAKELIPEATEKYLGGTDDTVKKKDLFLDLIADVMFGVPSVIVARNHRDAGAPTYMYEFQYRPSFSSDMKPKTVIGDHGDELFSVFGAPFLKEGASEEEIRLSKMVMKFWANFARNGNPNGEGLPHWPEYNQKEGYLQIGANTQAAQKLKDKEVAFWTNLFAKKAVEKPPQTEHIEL

[1] = substrate: CCC(CC)COC(=O)[C@H](C)N[P@](=O)(OC[C@H]1O[C@@](C#N)(c2ccc3c(N)ncnn23)[C@H](O)[C@@H]1O)Oc1ccccc1; experiment: Michaelis-Menten kinetics of hydrolysis to GS-704277 in S9 fraction, HPLC; assay type: biochemical, Homo sapiens

C=C(C)[C@@H]1CCC(C)=C[C@H]1c1c(O)cc(CCCCC)cc1O [cannabidiol]
Ki (human carboxylesterase 1): 890 nM

B1: human carboxylesterase 1 (Homo sapiens) (protein)
chain: T1 sequence (P23141 18-567)
Km [1]: 14.19 µM

B2: human carboxylesterase 1 (Homo sapiens; G143E) (protein)
chain: T1 sequence (P23141 18-567) with G126E
Km [1]: 93.94 µM
